Entries after “also recorded” stand apart in the source; their conditions may differ.
Tests used:
chemokine receptor CXCR4 [1] = test: Immunoblotting of CXCR4 in lymphatic endothelial cells (incl. HIF-1α RNA interference); type: cell-based; conditions: mouse lymphatic endothelial cells, 100 ng/mL VEGF-C, 6, 12 and 24 hours
Protocol: Mouse primary lymphatic endothelial cells at passage 2 or 3 in good condition were selected, and starved overnight by replacing the culture medium with a fresh medium free of serum and growth factors. Then the medium was replaced with a medium containing 100 ng/mL of VEGF-C. The cells were incubated for 6, 12 and 24 hours, respectively, and then trypsinized and collected by centrifugation for detecting the expression level of chemokine receptor CXCR4 in the cells by immunoblotting.
The samples were subjected to SDS-PAGE (the concentration of separation gel was 15%). Protein bands were transferred to polyvinylidene difluoride (PVDF) membrane (purchased from Millipore) at 100 mA for 3 hours using an electroblotting device in ice bath. TBST buffer (20 mM Tris, pH7.4, 150 mM NaCl, 0.1% Tween-20) was formulated for preparing blocking solution, primary antibody solution and secondary antibody solution. The PVDF membrane was further incubated in blocking solution containing 5% skim milk for 1 hour at room temperature with gentle shaking. The membrane was then washed with TBST for 5 times, 5 minutes each. […]
The siRNA for interfering with the chemical synthesis of HIF-1α was purchased from Santa Cruz Biotechnology, and the negative control siRNA was purchased from GenePharma, Shanghai. […] HIF-1α knock-down efficiency was detected by immunoblotting. […]

chemokine receptor CXCR4 [2] = test: qRT-PCR of chemokine receptor mRNA in VEGF-C-stimulated lymphatic endothelial cells; type: cell-based; conditions: VEGF-C-stimulated mouse lymphatic endothelial cells vs untreated cells
Protocol: The isolation and extraction of total RNA from cells was performed using TRIZOL reagent (purchased from Invitrogen) following the standard operations as described in the reagent instructions. 1 mL of TRIZOL was added to the primary lymphatic endothelial cells (about 1×10^6) collected by centrifugation, repeatedly pipetted up and down for 30 times, and then set aside at room temperature for 5 minutes. After centrifugation at 10,000×g at 4° C. for 15 minutes, the supernatant was […] gently. 0.2 mL of chloroform was added to the supernatant, vortexed vigorously for about 15 seconds, and then set aside at room temperature for 3 minutes. […]
The synthesis of first strand cDNA was performed using a Fermentas kit (RevertAid™ First Strand cDNA Synthesis Kits) according to the standard instructions. […] The reverse transcription product was used in subsequent PCR and fluorescence quantitative RT-PCR, and the rest of the product was stored in a refrigerator at −80° C.
Fluorescence Quantitative Real-Time PCR was performed using a kit from Stratagene (Brilliant II SYBR® Green QRT-PCR Master Mix). The fluorescence quantitative PCR instrument was MX3000P (purchased from Stratagene), the fluorescence dye was SYBR Green, the volume of the reaction system was 20 μL, and the cycle number of the reaction was 40. […]

B1: VEGF-C: Vascular Endothelial Growth Factor C, the major pro-lymphangiogenesis factor; purchased from R&D Systems (protein, UniProt P49767 112-227, looked up)
Vascular endothelial growth …: AHYNTEILKSIDNEWRKTQCMPREVCIDVGKEFGVATNTFFKPPCVSVYRCGGCCNSEGLQCMNTSTSYLSKTLFEITVPLSQGPKPVTISFANHTSCRCMSKLDVYRQVHSIIRR
With B1 the “expression level of CXCR4” value (chemokine receptor CXCR4 [1]) was “could up-regulate the expression of CXCR4 and HIF-1α” and the “chemokine receptor CXCR4 mRNA level” value (chemokine receptor CXCR4 [2]) was “significantly upregulated by about three times; also recorded: specifically up-regulated the expression of chemokine receptor CXCR4”.
